US20240156980A1 (Molecular Partners, published 2024)

What was measured:
human CD3 on T cells [1] = target: T1, human CD3 on T cells (human, UniProt P07766 23-207; P09693 23-182; P04234 22-171); assay: cell-based or functional assay
human CD3 on T cells [2] = target: T1, human CD3 on T cells; assay: cell-based or functional assay; remark: listed apart in the source
[3] = target: T2, human EGFR on tumor cells (human, UniProt P00533 25-1210); assay: flow cytometry on HCT 116 tumor cells, detection with anti-DARPin antibodies
T2 construct: whole, on cells; also called EGFR on A431 cells
Protocol: (§1) The determination of CD3 binding was performed with human CD3 on Jurkat cells, and binding to hEGFR on cells with HCT116 tumor cells, using Flow Cytometer Attune Nxt. A titration of prodrug DARPin molecules was incubated with 200′000 cells per well (for both Jurkat and HCT116 cells) for 30 min at 4° C. After washing, CD3 binding of DARPin® molecule was detected by 1:1000-diluted anti-DARPin® Antibody-Mix (1 h incubation at 4° C.) with the corresponding secondary antibody anti-rabbit IgG Alexa Fluor 488 (30 min incubation at 4° C.), which was added after washing off excess anti-DARPin Antibodies. Cells were subsequently washed and stained for livedead (aqua, 1:1000, thermofisher) and resuspended in Cytofix fixation buffer (BD Biosciences). Median of mean fluorescence intensities of Alexa Fluor 488 binding on live cells were measured by Flow Cytometry and data was plotted using GraphPad Prism 8.

human CD3 on T cells [4] = target: T1, human CD3 on T cells; assay: flow cytometry on Jurkat cells, detection with anti-DARPin antibodies
Protocol: as §1

[5] = target: T2, human EGFR on tumor cells; assay: cell-based or functional assay
[6] = target: T2, human EGFR on tumor cells; assay: cell-based or functional assay; remark: listed apart in the source
[7] = target: T3, CD3-specific binding domain C7v118; assay: SPR (ProteOn XPR36), biotinylated Binder captured on NLC neutravidin chip as ligand, CD3-specific binding domain as analyte, PBS-T, 25 C; KD from kon/koff
T3 construct: Used as analyte in SPR; also called hC22_88B02v118
T3 chain: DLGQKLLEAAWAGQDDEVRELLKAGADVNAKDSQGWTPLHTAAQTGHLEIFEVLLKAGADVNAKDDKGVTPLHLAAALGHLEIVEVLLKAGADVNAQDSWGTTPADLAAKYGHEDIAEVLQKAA
Text: (§2) An important feature of a binding moiety of the invention is its affinity towards a drug molecule. Relevant aspects include the off-rate of the binding moiety from the drug molecule and the resulting blocking half-life. Surface plasmon resonance (SPR) assays were used to determine the binding affinity of ankyrin repeat binding domains to the CD3 binding domain of a TCE drug molecule. AN SPR data was generated using a Bio-Rad ProteOn XPR36 instrument with PBS-T (0.005% Tween 20) as running buffer. A new neutravidin sensor chip (NLC) was air-initialized and conditioned according to Bio-Rad manual.

[8] = target: T4, CD3-specific binding domain C7v122; assay: as above
T4 construct: Used as analyte in SPR; also called hC22_88B02v122
T4 chain: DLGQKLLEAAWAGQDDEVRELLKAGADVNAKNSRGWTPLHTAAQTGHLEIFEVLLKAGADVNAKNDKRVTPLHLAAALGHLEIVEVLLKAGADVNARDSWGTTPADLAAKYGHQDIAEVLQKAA
Text: as §2

[9] = target: T5, CD3-specific binding domain C7v119; assay: as above
T5 construct: Used as analyte in SPR; also called hC22_88B02v119
T5 chain: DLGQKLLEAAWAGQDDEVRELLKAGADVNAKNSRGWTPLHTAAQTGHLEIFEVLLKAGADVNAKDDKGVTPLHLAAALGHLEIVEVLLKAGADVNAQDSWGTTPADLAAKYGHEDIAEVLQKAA
Text: as §2

[10] = target: T6, CD3-specific binding domain C7v14; assay: as above
T6 construct: Used as analyte in SPR; also called hC22_88B02v14
T6 chain: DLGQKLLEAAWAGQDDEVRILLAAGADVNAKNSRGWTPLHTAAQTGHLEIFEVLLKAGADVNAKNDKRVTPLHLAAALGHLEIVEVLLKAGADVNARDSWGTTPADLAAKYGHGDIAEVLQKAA
Text: as §2

[11] = target: T7, CD3-specific binding domain C7v127; assay: as above
T7 construct: Used as analyte in SPR; also called hC22_88B02v127
T7 chain: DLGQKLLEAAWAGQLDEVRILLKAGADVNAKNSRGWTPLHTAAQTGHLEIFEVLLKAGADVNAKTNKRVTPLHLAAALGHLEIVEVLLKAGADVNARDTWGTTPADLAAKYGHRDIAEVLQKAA
Text: as §2

[12] = target: T6, CD3-specific binding domain C7v14; assay: SPR (affinity cited in Example 9; CD3-binding domain taken as C7v14); high affinity Binder #1
Text: as §2

[13] = target: T7, CD3-specific binding domain C7v127; assay: SPR (ProteOn XPR36), biotinylated Binder on NLC chip, CD3-specific binding domain as analyte, 25 C
Text: as §2

[14] = target: T6, CD3-specific binding domain C7v14; assay: SPR (affinity cited in Example 9; CD3-binding domain taken as C7v14); lower affinity Binder #3
Text: as §2

[15] = target: T3, CD3-specific binding domain C7v118; assay: SPR (ProteOn XPR36), biotinylated Binder captured on NLC neutravidin chip as ligand, CD3-specific binding domain as analyte, PBS-T, 25 C; KD by equilibrium fitting
Text: as §2

[16] = target: T4, CD3-specific binding domain C7v122; assay: as above
Text: as §2

[17] = target: T5, CD3-specific binding domain C7v119; assay: as above
Text: as §2

[18] = target: T6, CD3-specific binding domain C7v14; assay: as above
Text: as §2

[19] = target: T7, CD3-specific binding domain C7v127; assay: as above
Text: as §2

T1 sequence (P07766 23-207, chain 1 of 3): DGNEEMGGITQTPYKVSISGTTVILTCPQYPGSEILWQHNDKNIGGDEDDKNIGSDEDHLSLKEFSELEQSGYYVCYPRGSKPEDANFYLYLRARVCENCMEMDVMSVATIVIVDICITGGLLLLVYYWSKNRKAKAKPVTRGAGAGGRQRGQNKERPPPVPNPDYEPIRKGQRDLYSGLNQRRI
T1 sequence (P09693 23-182, chain 2 of 3): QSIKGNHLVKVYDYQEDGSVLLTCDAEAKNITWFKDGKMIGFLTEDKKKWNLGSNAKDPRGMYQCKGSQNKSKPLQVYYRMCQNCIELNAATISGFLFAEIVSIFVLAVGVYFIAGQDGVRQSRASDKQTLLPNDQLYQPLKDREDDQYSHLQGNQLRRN
T1 sequence (P04234 22-171, chain 3 of 3): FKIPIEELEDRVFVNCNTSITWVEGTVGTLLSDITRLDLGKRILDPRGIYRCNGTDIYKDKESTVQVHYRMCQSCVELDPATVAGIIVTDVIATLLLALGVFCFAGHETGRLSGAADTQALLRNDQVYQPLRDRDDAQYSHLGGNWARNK

B1: Active TCE EGFR-C7v119-6His (designed binder)
chain: MGSDLGYKLLRAAFHGQDDEVRILLAAGADVNAKDLIGQTPLHNAAWVGHLEIVEVLLKAGADVNAKDYYGNTPLHLAAHDGHLEIVEVLLKAGADVNAQDTWGETPADLATNAGHEDIAEVLQKAAGSPTPTPTTPTPTPTTPTPTPTGSDLGQKLLEAAWAGQDDEVRELLKAGADVNAKNSRGWTPLHTAAQTGHLEIFEVLLKAGADVNAKDDKGVTPLHLAAALGHLEIVEVLLKAGADVNAQDSWGTTPADLAAKYGHEDIAEVLQKAAGSHHHHHH
notes: Bispecific ankyrin repeat protein; also called active TCE (C7v119 comprising construct); anti-EGFR x anti-CD3
With B1 the “tumor cell killing EC50 (LDH release), HCT 116 tumor cells and pan T-cells” value (human CD3 on T cells [1]) was 0.0074 nM, the “T-cell activation EC50, HCT 116 tumor cells and pan T-cells” value (human CD3 on T cells [2]) was 0.0108 nM and the “tumor cell killing EC50, HCT 116 tumor cells and pan T-cells” value (human CD3 on T cells [2]) was 0.0185 nM. For the same binder, the EC50 [3] was 0.427 nM and the EC50 (human CD3 on T cells [4]) was greater than 10 nM.

B2: Active TCE EGFR-C7v122-6His (designed binder)
chain: MGSDLGYKLLRAAFHGQDDEVRILLAAGADVNAKDLIGQTPLHNAAWVGHLEIVEVLLKAGADVNAKDYYGNTPLHLAAHDGHLEIVEVLLKAGADVNAQDTWGETPADLATNAGHEDIAEVLQKAAGSPTPTPTTPTPTPTTPTPTPTGSDLGQKLLEAAWAGQDDEVRELLKAGADVNAKNSRGWTPLHTAAQTGHLEIFEVLLKAGADVNAKNDKRVTPLHLAAALGHLEIVEVLLKAGADVNARDSWGTTPADLAAKYGHQDIAEVLQKAAGSHHHHHH
notes: Bispecific ankyrin repeat protein; also called active TCE (C7v122 comprising construct); anti-EGFR x anti-CD3
For B2, the “tumor cell killing EC50 (LDH release), HCT 116 tumor cells and pan T-cells” value (human CD3 on T cells [1]) was 0.0022 nM, the “T-cell activation EC50, HCT 116 tumor cells and pan T-cells” value (human CD3 on T cells [2]) was 0.0068 nM and the “tumor cell killing EC50, HCT 116 tumor cells and pan T-cells” value (human CD3 on T cells [2]) was 0.0072 nM. For the same binder, the EC50 [3] was 0.518 nM and the EC50 (human CD3 on T cells [4]) was 7.9 nM.

B3: CD3-PDD NCL EGFR-C7v14-[NCL2]-06E05v05-6His (designed binder)
chain: MGSDLGYKLLRAAFHGQDDEVRILLAAGADVNAKDLIGQTPLHNAAWVGHLEIVEVLLKAGADVNAKDYYGNTPLHLAAHDGHLEIVEVLLKAGADVNAQDTWGETPADLATNAGHEDIAEVLQKAAGSPTPTPTTPTPTPTTPTPTPTGSDLGQKLLEAAWAGQDDEVRILLAAGADVNAKNSRGWTPLHTAAQTGHLEIFEVLLKAGADVNAKNDKRVTPLHLAAALGHLEIVEVLLKAGADVNARDSWGTTPADLAAKYGHGDIAEVLQKAASGPTPTPTTPTPTPTTPTPTPTGSDLGKKLLQAARAGQLDEVRELLKAGADVNAKDAKGLTPLHLAAYHGHLEIVEVLLKAGADVNAKDVYGWTPLHIAAASGHLEIVEVLLKAGADVNAKDALGWTPLHLAASHGHLEIVEVLLKAGADVNAQDKSGKTPADLAARAGHQDIAEVLQKAAGSHHHHHH
With B3 the “masking window (EC50 difference between active TCE and CD3-PDD NCL), T-cell activation with A431 cells” value [5] was roughly 200 fold, the “T-cell activation EC50 (CD25 on CD8+ T cells), EGFR+ HCT 116 tumor cells and pan T-cells” value [6] was 0.0532 nM and the “T-cell activation EC50 (CD25 on CD8+ T cells), EGFR+++ A431 tumor cells and pan T-cells” value [6] was 0.679 nM.

B4: Binder #1 (designed binder)
chain: MRGSHHHHHHGSDLGKKLLQAARAGQLDEVRELLKAGADVNAKDAKGLTPLHLAAYHGHLEIVEVLLKAGADVNAKDVYGWTPLHIAAASGHLEIVEVLLKAGADVNAKDWLGWTPLHLAASHGHLEIVEVLLKAGADVNAQDKSGKTPADLAARAGHQDIAEVLQKAA
modifications: biotinylated for SPR (site not stated)
notes: also called 06E05
B4 gave a Kd [7] of 0.44 nM, a Kd [8] of 0.21 nM and a Kd [9] of 0.36 nM. For the same binder, the Kd [10] was 0.33 nM, the Kd [11] was 0.02 nM and the Kd [12] was less than 1 nM.

B5: Binder #2 (designed binder)
chain: MRGSHHHHHHGSDLGKKLLQAARAGQLDEVRELLKAGADVNAKDAKGLTPLHLAAYHGHLEIVEVLLKAGADVNAKDVAGWTPLHIAAASGHLEIVEVLLKAGADVNAKDWLGWTPLHLAASHGHLEIVEVLLKAGADVNAQDKSGKTPADLAARAGHQDIAEVLQKAA
modifications: biotinylated for SPR (site not stated)
notes: N-terminal His-tag; also called 06E05v03
B5 was tested, and the binding result [13] was “binds”, the Kd [7] was 126 nM and the Kd [8] was 92.4 nM. It also gave a Kd [9] of 141 nM and a Kd [10] of 114 nM.

B6: Binder #3 (designed binder)
chain: MRGSHHHHHHGSDLGKKLLQAARAGQLDEVRELLKAGADVNAKDAKGLTPLHLAAYHGHLEIVEVLLKAGADVNAKDVYGWTPLHIAAASGHLEIVEVLLKAGADVNAKDALGWTPLHLAASHGHLEIVEVLLKAGADVNAQDKSGKTPADLAARAGHQDIAEVLQKAA
modifications: biotinylated for SPR (site not stated)
notes: N-terminal His-tag; also called 06E05v05
In the case of B6, the Kd [14] is reported as greater than 100 nM, the Kd [15] is reported as 683 nM and the Kd [16] is reported as 149 nM. The Kd [17] was 336 nM, the Kd [18] was 189 nM and the Kd [19] was 53.4 nM.

B7: Binder #4 (designed binder)
chain: MRGSHHHHHHGSDLGKKLLQAARAGQLDEVRELLKAGADVNAKDAKGLTPLHLAAYHGHLEIVEVLLKAGADVNAKDVYGWTPLHIAAASGHLEIVEVLLKAGADVNAKDWLGWTPLHLAASAGHLEIVEVLLKAGADVNAQDKSGKTPADLAARAGHQDIAEVLQKAA
modifications: biotinylated for SPR (site not stated)
notes: N-terminal His-tag; also called 06E05v07
For B7, the binding result [13] was “binds”, the Kd [15] was 41.4 nM and the Kd [16] was 27.2 nM. It also gave a Kd [17] of 37.5 nM and a Kd [18] of 35.3 nM.
